Measured values reported in patent US20040167074A1, “Therapeutic applications of mFLINT polypeptides” (priority 1998, published 2004).
Several values for one entry are separate records, joined by “and”; a condition that tells them apart may be missing. Equal values may be shown once.

Key:
CD40 L = molecular target: T1, CD40 L (Homo sapiens, UniProt P29965); experiment: Dot blot binding of mFLINT to TNF ligands
T1 construct: purchased
T1 sequence (P29965 113-261 limits assumed): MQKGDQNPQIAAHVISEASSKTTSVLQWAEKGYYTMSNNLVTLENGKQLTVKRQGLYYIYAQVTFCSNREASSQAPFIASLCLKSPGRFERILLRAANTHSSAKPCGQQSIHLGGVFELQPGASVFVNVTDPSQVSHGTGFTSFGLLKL

FasL = molecular target: T2, FasL (Homo sapiens, UniProt P48023); experiment: BiaCore real-time biomolecular interaction analysis (surface plasmon resonance); assay type: binding
T2 construct: purchased Kamiya Biomedical Company
T2 sequence (P48023 130-281 limits assumed): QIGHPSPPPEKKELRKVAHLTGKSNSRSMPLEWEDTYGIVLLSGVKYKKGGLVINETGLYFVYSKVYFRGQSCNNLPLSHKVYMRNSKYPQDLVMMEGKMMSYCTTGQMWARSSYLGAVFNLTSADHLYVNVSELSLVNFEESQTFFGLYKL
Source text: FLINT-Fas L binding may be confirmed and specifics of binding determined (e.g., kinetics, specificity, affinity, cooperativity, relative binding pattern, concentration) using real-time biomolecular interaction analysis. This technology confers the ability to study biomolecular interactions in real time, without labeling any of the interactants. In particular, it takes advantage of the optical phenomenon surface plasmon resonance, and detection depends on changes in the mass concentration of macromolecules at the biospecific interface. Interactions are followed in real time, so that kinetic information is readily derived. In many cases, investigations can be performed without prior purification of components.
Measurements are accomplished using a BiaCore 2000 instrument. The instrument, accompanying chips, immobilization and maintenance kits and buffers are obtained from Biacore AB, Rapsgatan 7, S-754 50 Uppsala, Sweden. FasL is obtained from Kamiya Biomedical Company, 910 Industry Drive, Seattle, Wash. 98188, Guanidine Isothiocyanate Solution from GibcoBRL, and mFLINT is prepared as in Examples 8 and 9.
Experiments using immobilized FasL loaded with a solution containing mFLINT. […] This is explained by the fact that FasL is a trimer, yet here FasL monomer was bound. Further experiments utilized bound FLINT with FasL in solution, allowing for trimer formation. […] This observations indicate that FLINT should effectively compete with Fas for FasL binding, which likely explains the therapeutic benefit observed in experiments detailed below.

hFasLigand (Flag-tagged) = molecular target: T3, hFasLigand (Flag-tagged) (Homo sapiens, UniProt P48023); experiment: ELISA: FasLigand binding to adsorbed FLINT and Fas; conditions: 100 ng receptor adsorbed
T3 sequence (P48023 103-281 limits assumed): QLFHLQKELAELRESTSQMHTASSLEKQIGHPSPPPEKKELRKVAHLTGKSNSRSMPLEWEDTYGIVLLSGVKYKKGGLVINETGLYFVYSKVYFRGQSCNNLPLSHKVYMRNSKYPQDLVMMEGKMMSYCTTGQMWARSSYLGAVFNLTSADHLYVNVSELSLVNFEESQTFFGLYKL
Description: FLINT and Fas (100 ng of each) were adsorbed on to an ELISA plate. hFasLigand (Flag-tagged) was added at different concentrations to a maximum concentration of 300 ng down to 0.1 ng on TBST plus a 0.1% solution containing 1 microgram/ml of M2 Abs. After washing of the plate, anti-mouse-Abs-HRP (1:3000 dilution, Bio-Rad) was added to the wells. After washings, visualization enzymatic reaction using ABTS as a substrate was performed.

Jurkat cells = experiment: Recombinant FasL induced Jurkat cell apoptosis (Annexin V/PI, FACS); assay type: cell-based; conditions: Jurkat + FasL 200 ng/ml + 1 ug test agent
Description: One milliliter of 1×10^6 cell/ml was added into each well of 24 well tissue culture plate and treated with following reagents: soluble Fas L (200 ng), Fas L plus 1 ug mFLINT, Fas L plus 1 ug OPG2-Fc, Trail (200 ng), Trail plus 1 ug mFLINT. Cells were incubated overnight at 37° C. and then stained with Annexin V and PI.

[1] = system: Mouse T cell hybridoma cells (LTT cells); experiment: Murine FasL-mediated apoptosis of LTT cells (MTS cytotoxicity assay); assay type: cell-based; conditions: test agent 1 μg/ml
Description: LTT,2,14,11 cells (LTT cells), see Glasebrook, Eur.J.Immunol. 17: 1561-65 (1987), were used in this Annexin V assay. On the first day, a 96 well plate was coated with anti-CD3 (2C11) at a serial dilutions. On the second day, 100,000 LTT cells were added, in 50 μl of medium per well, along with 50 μl of medium to the control wells and 50 μl of medium containing:
The same steps as in Example 16 were followed on Day 1 and Day 2. On Day 3 20 ul of MTS solution (Promega) was added to the cells which were then incubated at 37° C. for 2 hours. Using a plate reader, the absorbances at 490 nm wavelength were collected.

[2] = system: Ventricular cardiomyocytes; experiment: Hypoxia/reperfusion-induced cardiomyocyte apoptosis (nucleosome DNA ELISA)
Description: In particular, cardiomyocytes were incubated under hypoxia conditions for 8 hours, followed by 16 hours of culture under normal O2, which mimics the hypoxic conditions found in ischemic cardiac tissue.
Ventricular cardiomyocytes were isolated from the hearts of 1-3 day-old neonatal rats by trypsin digestion and non-myocytes were eliminated by pre-plating. Primary cultures were plated in special-coated 96-well plates in serum-free medium.
Hypoxia was induced by incubating cultures in glucose-free and oxygen-free (5% Co2 and 95% N2) for 8 hours. Reperfusion was mimicked by a 16 hour incubation in glucose-containing medium under normal oxygen conditions. At the end of this incubation, cardiomyocyte apoptosis was measured by the cytoplasmic nucleosome-associated DNA ELISA method. Test samples were incubated with mFLINT (2 μg/ml or 5 μg/ml) and control samples with Z-YVAD-fmk (50 μM), a commercial caspase inhibitor.

B1: mFLINT: mature FLINT without leader peptide (FIG. 3), soluble TNFR superfamily member, made according to Examples 8 and 9 (protein)
chain: VAETPTYPWRDAETGERLVCAQCPPGTFVQRPCRRDSPTTCGPCPPRHYTQFWNYLERCRYCNVLCGEREEEARACHATHNRACRCRTGFFAHAGFCLEHASCPPGAGVIAPGTPSQNTQCQPCPPGTFSASSSSSEQCQPHRNCTALGLALNVPGSSSHDTLCTSCTGFPLSTRVPGAEECERAVIDFVAFQDISIKRLQRLLQALEAPEGWGPTPRAGRAALQLKLRRRLTELLGAQDGALLVRLLQALRVARMPGLERSVRERFLPVH
modifications: glycosylated
binding in dot blot (CD40 L): No appreciable binding | KD for FLINT-FasL relative to immobilized-FasL experiment (FasL; bound FLINT with FasL in solution, allowing trimer formation): 2 orders of magnitude better | Kd (FasL; immobilized FasL (monomer bound), analyte in solution): 113 nM | OD, 405 nM (hFasLigand (Flag-tagged); FasL 0.1 ng): 0 | OD, 405 nM (hFasLigand (Flag-tagged); FasL 0.5 ng): 0 | OD, 405 nM (hFasLigand (Flag-tagged); FasL 1.0 ng): .02 | OD, 405 nM (hFasLigand (Flag-tagged); FasL 5.0 ng): .04 | OD, 405 nM (hFasLigand (Flag-tagged); FasL 10 ng): .12 | OD, 405 nM (hFasLigand (Flag-tagged); FasL 50 ng): .28 | OD, 405 nM (hFasLigand (Flag-tagged); FasL 100 ng): .78 | Cell apoptosis (Annexin V and PI, FACS) (Jurkat cells): 3.32 and 4.6 | MTS absorbance at 490 nm ([1]; Anti CD3 conc. 0 μg/ml): 1.691 | MTS absorbance at 490 nm ([1]; Anti CD3 conc. 0.0014 μg/ml): 1.923 | MTS absorbance at 490 nm ([1]; Anti CD3 conc. 0.004 μg/ml): 1.982 | MTS absorbance at 490 nm ([1]; Anti CD3 conc. 0.012 μg/ml): 2.006 | MTS absorbance at 490 nm ([1]; Anti CD3 conc. 0.037 μg/ml): 2.006 | MTS absorbance at 490 nm ([1]; Anti CD3 conc. 0.11 μg/ml): 1.874 | MTS absorbance at 490 nm ([1]; Anti CD3 conc. 0.33 μg/ml): 1.671 | MTS absorbance at 490 nm ([1]; Anti CD3 conc. 1 μg/ml): 1.581 | inhibition of hypoxia-induced apoptosis ([2]; 10 μg/ml mFLINT, 8 hours hypoxia, 16 hours normal O2): 90% | inhibition of hypoxia/reperfusion-induced apoptosis ([2]; mFLINT 2 μg/ml or 5 μg/ml, duplicate experiments): essentially complete inhibition
